# Measured values as given in PMC11470070, “Structural basis for synthase activation and cellulose modification in the E. coli Type II Bcs secretion system” (Nature Communications, 2024).
# T1: BcsQ (BcsR2Q2 in the Bcs macrocomplex) (Escherichia coli, UniProt P0DP92)
# T1 construct: full-length untagged BcsQ with His-BcsR; co-expressed Bcs macrocomplex in E. coli NiCo21(DE3), anti-FLAG purified; nucleotide-driven sandwich dimer; with Cellulose biosynthesis protein BcsR; Cellulose synthase catalytic subunit [UDP-forming]; Cellulose biosynthesis protein BcsF; Cellulose biosynthesis protein BcsG
# T1 sequence (P0DP92 1-250): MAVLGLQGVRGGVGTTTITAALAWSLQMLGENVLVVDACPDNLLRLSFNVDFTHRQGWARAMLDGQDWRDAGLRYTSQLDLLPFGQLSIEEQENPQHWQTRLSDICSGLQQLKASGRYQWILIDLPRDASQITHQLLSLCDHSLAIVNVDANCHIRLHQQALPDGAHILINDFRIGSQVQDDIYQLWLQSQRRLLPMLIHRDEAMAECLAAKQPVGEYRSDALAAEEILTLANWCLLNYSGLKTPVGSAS
# T1 sequence (P0ADJ3 1-62 partner): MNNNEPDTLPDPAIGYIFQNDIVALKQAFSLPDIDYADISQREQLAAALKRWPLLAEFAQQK
# T2: BcsA cellulose synthase (BcsA^HA-FLAG) (E. coli, UniProt P37653 1-872)
# T2 construct: BcsA, E. coli; amplified within the genomic region bcsRQA^HA-FLAGB from genomic DNA of the E. coli 1094 bcsA^HA-FLAG strain; domains NTD, TMD, GT, PilZ, C-terminal tail; Expressed from the whole genomic region bcsRQAB of strain 1094; One copy in the macrocomplex; source: for the BcsF variants E. coli Δbcs BL21*(DE3)
# T2 sequence: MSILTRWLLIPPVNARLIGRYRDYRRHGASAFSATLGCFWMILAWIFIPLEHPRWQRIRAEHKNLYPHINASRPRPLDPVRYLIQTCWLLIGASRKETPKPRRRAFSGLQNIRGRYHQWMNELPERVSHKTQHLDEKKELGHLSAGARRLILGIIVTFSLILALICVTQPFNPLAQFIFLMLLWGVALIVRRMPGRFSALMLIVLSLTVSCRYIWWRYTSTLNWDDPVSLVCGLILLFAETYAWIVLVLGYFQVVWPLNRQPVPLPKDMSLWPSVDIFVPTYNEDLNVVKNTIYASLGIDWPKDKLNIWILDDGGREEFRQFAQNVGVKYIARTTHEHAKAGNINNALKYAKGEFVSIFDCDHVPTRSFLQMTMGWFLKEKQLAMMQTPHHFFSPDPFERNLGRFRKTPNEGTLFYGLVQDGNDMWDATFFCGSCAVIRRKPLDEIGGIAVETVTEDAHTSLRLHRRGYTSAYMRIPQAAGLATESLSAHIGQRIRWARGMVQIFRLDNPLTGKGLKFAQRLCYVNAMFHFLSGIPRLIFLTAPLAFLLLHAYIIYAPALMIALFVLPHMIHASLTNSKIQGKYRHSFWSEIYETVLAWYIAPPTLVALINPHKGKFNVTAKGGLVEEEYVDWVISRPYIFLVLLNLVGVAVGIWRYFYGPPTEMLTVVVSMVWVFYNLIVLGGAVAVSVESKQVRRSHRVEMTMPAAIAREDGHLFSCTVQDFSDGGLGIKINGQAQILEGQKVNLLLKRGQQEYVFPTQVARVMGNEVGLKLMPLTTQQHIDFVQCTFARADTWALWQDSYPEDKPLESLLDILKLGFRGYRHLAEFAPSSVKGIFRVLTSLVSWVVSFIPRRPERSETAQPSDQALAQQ
# Tests used:
# [1] = molecular target: T1, BcsQ (BcsR2Q2 in the Bcs macrocomplex); experiment: cryo-EM structure of the complex; assay type: binding; details: nucleotide-driven BcsQ sandwich dimer; text says ATP-bound, but 10 uM AppCp (non-hydrolysable analogue) was in the purification buffers; 5 mM MgCl2, pH 8.0
# [2] = molecular target: T3, BcsE (in the BcsR2Q2AB6E2F2G3 Bcs macrocomplex) (Escherichia coli, UniProt P37657); experiment: cryo-EM structure of the complex; assay type: binding; details: intercalated c-di-GMP dimer per BcsE protomer at the REC*-GGDEF* dual I-site (R306ATD, R415TGD); 2-4 uM c-di-GMP, 5 mM MgCl2, pH 8.0
# T3 construct: full-length, N-terminal Strep II tag; co-expressed Bcs macrocomplex in E. coli NiCo21(DE3), anti-FLAG purified; with Cellulose biosynthesis protein BcsF; Cellulose biosynthesis protein BcsR; Cellulose biosynthesis protein BcsQ; Cellulose synthase catalytic subunit [UDP-forming]; Cellulose biosynthesis protein BcsG
# [3] = molecular target: the molecule itself; experiment: cryo-EM structure; Bcs macrocomplex co-expressed in E. coli and purified on anti-FLAG gel by BcsA^HA-FLAG, 20 mM HEPES pH 8.0, 120 mM NaCl, 5 mM MgCl2, 10 μM AppCp, 4 μM c-di-GMP, 0.01% LM-NPG; class of the c-di-GMP-saturated macrocomplex with local refinements; the BcsB crown refined from all particles
# [4] = molecular target: T2, BcsA cellulose synthase (BcsA^HA-FLAG); experiment: cryo-EM structure; same sample and grids as a1; class of particles with a c-di-GMP-free BcsA synthase (non-saturated macrocomplex), with local refinements; details: both partners purified
# [5] = molecular target: the molecule itself; experiment: as above
molecule,measurement,setting,value
Nc1ncnc2c1ncn2[C@@H]1O[C@H](COP(=O)(O)OP(=O)(O)OP(=O)(O)O)[C@@H](O)[C@H]1O [ATP],cryo-EM structure of the complex,[1],the BcsR copies stabilize the ATP-bound BcsQ apical dimer
Nc1nc2c(ncn2[C@@H]2O[C@@H]3COP(=O)(O)O[C@H]4[C@@H](O)[C@H](n5cnc6c(=O)[nH]c(N)nc65)O[C@@H]4COP(=O)(O)O[C@H]3[C@H]2O)c(=O)[nH]1 [c-di-GMP],cryo-EM structure of the complex,[2],An intercalated c-di-GMP dimer is found at each cis-interdomain interface of a closed BcsE
"BcsQ (natural protein, E. coli, BcsQ, E. coli; amplified within the genomic region bcsRQA^HA-FLAGB of E. coli 1094; the strain used is 1094; also called SIMIBI family NTPase BcsQ) MAVLGLQGVRGGVGTTTITAALAWSLQMLGENVLVVDACPDNLLRLSFNVDFTHRQGWARAMLDGQDWRDAGLRYTSQLDLLPFGQLSIEEQENPQHWQTRLSDICSGLQQLKASGRYQWILIDLPRDASQITHQLLSLCDHSLAIVNVDANCHIRLHQQALPDGAHILINNFRIGSQVQDDIYQLWLQSQRRLLPMLIHRDEAMAECLAAKQPVGEYRSDALAAEEILTLANWCLLNYSGLKTPVGSKS",stoichiometry N,[3],2
"BcsG pEtN-transferase (enzyme, E. coli, BcsG, E. coli; amplified within the genomic region bcsEFG; N-terminal domain of 5 transmembrane helices, 48-residue linker, C-terminal pEtN-transferase domain (the last not resolved in the maps); Three copies in the macrocomplex; also called BcsG^NTD; BcsG3) MTQFTQNTAMPSSLWQYWRGLSGWNFYFLVKFGLLWAGYLNFHPLLNLVFAAFLLMPLPRYSLHRLRHWIALPIGFALFWHDTWLPGPESIMSQGSQVAGFSTDYLIDLVTRFINWQMIGAIFVLLVAWLFLSQWIRITVFVVAILLWLNVLTLAGPSFSLWPAGQPTTTVTTTGGNAAATVAATGGAPVVGDMPAQTAPPTTANLNAWLNNFYNAEAKRKSTFPSSLPADAQPFELLVINICSLSWSDIEAAGLMSHPLWSHFDIEFKNFNSATSYSGPAAIRLLRASCGQTSHTNLYQPANNDCYLFDNLSKLGFTQHLMMGHNGQFGGFLKEVRENGGMQSELMDQTNLPVILLGFDGSPVYDDTAVLNRWLDVTEKDKNSRSATFYNTLPLHDGNHYPGVSKTADYKARAQKFFDELDAFFTELEKSGRKVMVVVVPEHGGALKGDRMQVSGLRDIPSPSITDVPVGVKFFGMKAPHQGAPIVIEQPSSFLAISDLVVRVLDGKIFTEDNVDWKKLTSGL",stoichiometry N,[4],3
same,stoichiometry N,[5],3
"BcsB co-polymerase (natural protein, E. coli, UniProt P37652 26-779, looked up, BcsB, E. coli; amplified within the genomic region bcsRQA^HA-FLAGB of E. coli 1094; periplasmic modules CBD1-FD1-CBD2-FD2 and a C-terminal tail-anchor (TA); Six copies in the macrocomplex; the strain used is 1094; also called BcsB^TA (tail-anchor); periplasmic crown) TPATQPLINAEPAVAAQTEQNPQVGQVMPGVQGADAPVVAQNGPSRDVKLTFAQIAPPPGSMVLRGINPNGSIEFGMRSDEVVTKAMLNLEYTPSPSLLPVQSQLKVYLNDELMGVLPVTKEQLGKKTLAQMPINPLFISDFNRVRLEFVGHYQDVCEKPASTTLWLDVGRSSGLDLTYQTLNVKNDLSHFPVPFFDPSDNRTNTLPMVFAGAPDVGLQQASAIVASWFGSRSGWRGQNFPVLYNQLPDRNAIVFATNDKRPDFLRDHPAVKAPVIEMINHPQNPYVKLLVVFGRDDKDLLQAAKGIAQGNILFRGESVVVNEVKPLLPRKPYDAPNWVRTDRPVTFGELKTYEEQLQSSGLEPAAINVSLNLPPDLYLMRSTGIDMDINYRYTMPPVKDSSRMDISLNNQFLQSFNLSSKQEANRLLLRIPVLQGLLDGKTDVSIPALKLGATNQLRFDFEYMNPMPGGSVDNCITFQPVQNHVVIGDDSTIDFSKYYHFIPMPDLRAFANAGFPFSRMADLSQTITVMPKAPNEAQMETLLNTVGFIGAQTGFPAINLTVTDDGSTIQGKDADIMIIGGIPDKLKDDKQIDLLVQATESWVKTPMRQTPFPGIVPDESDRAAETRSTLTSSGAMAAVIGFQSPYNDQRSVIALLADSPRGYEMLNDAVNDSGKRATMFGSVAVIRESGINSLRVGDVYYVGHLPWFERVWYALANHPILLAVLAAISVILLAWVLWRLLRIISRRRLNPDNE",stoichiometry N,[3],6
"BcsF (natural protein, E. coli, BcsF, E. coli; amplified within the genomic region bcsEFG; single transmembrane helix, amphipathic helical extension and cytosolic C-terminal tail; Two copies in the macrocomplex; also called inner membrane polypeptide BcsF; source: for the BcsF variants experiment E. coli Δbcs BL21*(DE3)) MMTISDIIEIIVVCALIFFPLGYLARHSLRRIRDTLRLFFAKPRYVKPAGTLRRTEKARATKK",stoichiometry N,[5],2
